Among the data in publication PMC3347556 are pKa values, retold here.

The target in this data set is Lys65 (UniProt position 65, ICSVSKQFTCA). In words: kinetics. The note with it: 25 °C, not stated (0.1 M Tris-HCl buffer), Free enzyme (Vmax/KM profile) with D-Ala-pNA as substrate.

Usually pKa stands for the pH at which an ionisable group is half protonated. “D-aminopeptidase (DAP) (Ochrobactrum anthropi)” registered a pKa of 7.4.
